This is an account of results in WO2019076277A1 (dated 2019).

One test addresses T1, human LAG-3 protein (human, UniProt P18627 23-450, limits assumed).
T1 construct: also called human LAG-3 antigen; LAG-3 antigen
T1 sequence (looked up): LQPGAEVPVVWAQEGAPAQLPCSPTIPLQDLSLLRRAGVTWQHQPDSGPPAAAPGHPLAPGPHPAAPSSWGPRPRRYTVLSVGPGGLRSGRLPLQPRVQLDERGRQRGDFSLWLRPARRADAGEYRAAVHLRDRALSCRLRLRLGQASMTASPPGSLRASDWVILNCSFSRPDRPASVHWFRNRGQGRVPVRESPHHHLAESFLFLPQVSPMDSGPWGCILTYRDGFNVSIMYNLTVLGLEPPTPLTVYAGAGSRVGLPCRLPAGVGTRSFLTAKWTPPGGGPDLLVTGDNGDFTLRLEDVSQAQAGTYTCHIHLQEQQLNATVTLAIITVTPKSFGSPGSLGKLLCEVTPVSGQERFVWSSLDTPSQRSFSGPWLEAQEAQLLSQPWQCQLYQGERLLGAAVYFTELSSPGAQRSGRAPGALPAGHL
Briefly: binding ELISA on human LAG-3 protein (Test Example 1).

Test [1] deals with T2, human LAG-3 full-length protein overexpressed on CHO-S cells (human, UniProt P18627 23-525).
T2 construct: whole, on cells; also called full-length LAG-3; CHO-S cells overexpressing the human LAG-3 full-length protein
T2 sequence (looked up): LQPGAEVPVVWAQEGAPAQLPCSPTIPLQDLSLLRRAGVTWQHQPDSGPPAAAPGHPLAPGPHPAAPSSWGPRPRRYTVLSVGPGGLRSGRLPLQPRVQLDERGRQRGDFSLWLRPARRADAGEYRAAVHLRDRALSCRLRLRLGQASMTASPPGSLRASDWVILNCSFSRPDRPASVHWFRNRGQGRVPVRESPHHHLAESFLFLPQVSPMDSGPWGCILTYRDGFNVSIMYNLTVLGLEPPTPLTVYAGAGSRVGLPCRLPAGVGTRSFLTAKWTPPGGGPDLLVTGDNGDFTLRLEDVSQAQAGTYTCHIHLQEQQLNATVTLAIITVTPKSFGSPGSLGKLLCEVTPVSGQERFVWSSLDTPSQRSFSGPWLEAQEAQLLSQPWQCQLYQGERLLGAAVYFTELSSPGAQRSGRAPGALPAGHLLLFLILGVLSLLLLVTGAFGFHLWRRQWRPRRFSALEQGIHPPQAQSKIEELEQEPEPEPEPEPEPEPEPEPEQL
Briefly: cell ELISA on CHO-S cells overexpressing human LAG-3 (Test Example 2).

B1: mAb229 (antibody, V domains shown)
VH: QIQLVQSGPELKKPGETVKISCKASGYTFTTSGMSWVKQAPGKGLKWMGWINTYSGVPTYADDFKGRFAFSLETSASTAYLQINNLKNEDTATYFCARDNYDARDVYYYAMDYWGQGTSVTVSS
VL: DIQMTQSPASLSVSVGETVTITCRASENIYSNLAWYQQKQGKSPQLLVYAATNLADGVPSRFSGSGSGTQYSLKINSLQSEDFGSYYCQHFWITPWTFGGGTKLEIK
notes: also called LAG-3 antibody mAb229; hybridoma clone mAb229
Consider B1, for which the binding result (with human LAG-3 protein; in test [1]) was “binds” each time.

B2: mAb303 (antibody, V domains shown)
VH: EVQLQQSGPVLVKPGASVKMSCKASGYTLTDYYMNWVKQSHGKSLEWIGVINPYNGDTAYNQKFKGKATLTVDKSSNTAYMEINSLTSEDSAVYYCTRDDGYYDYYFDVWGTGTTVTVSS
VL: DIQMTQSPSSLSASLGERVILTCRASQDIGSRLNWLQQGPDGTFKRLIYATSTLDSGVPKRFSGSRSGSDFSLTISSLESEDFVDYYCLQLASSPPTFGGGTKLEIK
notes: also called LAG-3 antibody mAb303; hybridoma clone mAb303
B2: the binding result (in the test with human LAG-3 protein; in test [1]) was “binds” each time.
